Experimental data taken from the DeepSol protein solubility set.

Assay: soluble on expression in E. coli; label from the status in PepcDB or PDB records

Row | Sequence | soluble on expression in E. coli
1 | MEEEQLLDYEEEQEEIQDKQPEVGGGDARKTKGTYASIHSSGFRDFLLKPEILRAIGDCGFEHPSEVQHECIPQAILGMDVVCQAKSGMGKTAVFVITTLQQLEPVDGEVSVVCMCHTRELAFQISKEYERFSKYLPGVKVAVFFGGMAIKKDEERLANDCPHIVVGTPGRMLALARSGKLKLDKVKYFVLDECDKMIGDADMRRDVQEIVKMTPQQKQVMMFSATLPKELRTVCKRFMQDPMEVYVDDEAKLTLHGLQQHYVKLKEAEKNRRLLNLLDALEFNQVVIFVKAVKRCEALHQLLTEQNFPSIAIHRQMAQEERLSRYQAFKDFQKRILVATDLFGRGMDIERVNIVFNYDMPEDSDSYLHRVARAGRFGTKGLAITFVSDENDAKTLNSVQDRFDISITELPEKIDVSTYIEGRTN | not soluble
2 | MEEHPKILSIAGSDSCAGAGMQADLKTAMSLGCHCCTILVVLTAQNTKEVKSIIEVDEKFIVEQLDAIFTDITIEVVKLGVLYSKKIISLIHNYITNINKMREKKLLVVFDPVFVSSSGCMLVENLDYVKYALDLICPLSCIITPNFYECKVILEALNFNIDINNMRTSDLCKLVTEKLNINACLFKSCNIDINTEDENKLYAVDHLCIKNDNDYDTKIKQNISYDVYKLKSKRNPQKDIHGTGCTLSTAISCFLSKKYDIIQACIESKKYIYNCINYAYDLGSKSQGLNHLKAAQHLTDFRELQVIKVD | not soluble
3 | MEENSIKIHKWLYPASWLYGAGVALRNKLFDWGKLQSKSFNVPIICIGNIAVGGTGKTPHTEYLIKLLHDEFQVAVLSRGYKRHTKGFVLSTAESDARSIGDEPYQIQSKFSDIRVAVDEDRCHGIERLLTLKEPPVEVILLDDAFQHRYVKAGLNILLTDYHRLFCDDTLMPAGRLRESAQGKNRAQIVIVTKCPPDIKPIDYNIITKRLNLFPYQQLYFSSFRYGNLRAVFPDCATVQERKLSSLQTEEQILLITGIASPDTIIRELEIHTRNIDLLAFSDHHNFSQRDLAQIKERFGKLRKGQRLIVTTEKDATRLICHQELDEGLKPFIYALPIEVEILQNQQDNFNQHIIGYVRENTRNGSLPERKDAHKSLEHHHHHH | soluble
4 | MEENTKEMIVIDSVDRYNEIFGLETRHPLVSIIDLAKSTTWPTRAWFRYEVYALYLKNVKCGDIKYGRQYYDYQDGTIVCFAPGQITDLEMLPNIQPNAHGILFHPDLIRGTALGQEIKKYSFFSYETNEALHISEEERQTVMDCLQKITIELEHSIDKHSRRLICANIGLLLDYCMRFYERQFDTRNGVNKDIIVRFEHLLNEYFEGDAPQNQGLPSVKYFADKVFLSANYFGD | not soluble
5 | MEESINQNPEAMEALISNLFGNISSLKSAYIELQSAHTPYDPEKIQAADKVVISELKNLSEMKHFYRENNPKPVCVSPQDSRLAAEIQEQQSLLKTYEVMVKKFQSEIQNKDSEITQMLQKIEEANQKRLKLEKNLKLRGMSTNQGSGGDGNLQFPDLTTELFVSTYEAAAKVVHDFSKPLINMMKAAGWDLDTAANSIEPDVVYAKRPHKEYAFESYICQRMFSGFQQKNFSVNSESATVMADDDTDTFFRQFLALKDMDPLDALDQRDYVTGGGHPRTAFYQAFLKLAKSIWILHKLAYSFDPAAKIFQVKKGSEFSDSYMESVVKNIH | soluble
6 | MEESRADGRNPNQLRPFSCTRNPLDRAHGSARWAQGDTIVLAAVYGPKPGTRKGENPEKASIEVVWKPMTGQIGKQEKEYEMTLKRTLQSICLLTVHPNTTTSVILQVVGNDGSLLPCAINACCAALVFAGIPLKHLAVAIGCGVLEDGEVILDTNKAEEQQLKSFAHLVFPNSRKSASSKEPNQKEEDSERGLITSITHGVMSEEDYFSCIERGLAASSRISDFMRTTLQKQAPGDVLEHHHHHH | soluble
7 | MEFPDLGAHCSEPSCQRLDFLPLKCDACSGIFCADHVAYAQHHCGSAYQKDIQVPVCPLCNVPVPVARGEPPDRAVGEHIDRDCRSDPAQQKRKIFTNKCERSGCRQREMMKLTCDRCGRNFCIKHRHPLDHECSGEGHQTSRAGLAAISRAQGLASTSTAPSPSRTLPSSSSSSRATPQLPTRTASPVIALQNGLSEDEALQRALELSLAEAKPQVLSSQEEDDLALAQALSASEAEYQQQQAQSRSLKPSNCSLC | soluble
8 | MEFTAEQLSQYNGTDESKPIYVAIKGRVFDVTTGKSFYGSGGDYSMFAGKDASRALGKMSKNEEDVSPSLEGLTEKEINTLNDWETKFEAKYPVVGRVVS | soluble
9 | MEGEKGSKTRKGDALAREKLLEIAEKIYNQFEEEVVPSVSLPSRTKANLEYSDESDVWVYGDRESERSAKTVKGAFQLLKTTYATDFLINEHLARNRGSTLRELYYISEGWDYAKFKEQGESDRLIEDLEILTSLQREYFHMRPEEDGATMFGPIEITEQTKRGERNIHCQKDVGEGGYQIPFNVENIEFQKHDASMIIAIETGGMYARLMENGFDEAYNAILVHLKGQPARSTRRIIKRMNEELGIPVAVFTDGDPWSYRIYASVAYGAIKSAHLSEFMATPAAKFLGLQPSDIVEYELSTDKLTEQDVSALRSELSDPRFESDYWKEQIQLQLDIGKKAEQQAFAGKGLDFVTEVYLPNRLKEMGMI | soluble
10 | MEGRLTVVPTPIGNLEDITLRALKVLREADLILAEDTRTSSVLLHHYDIHCPLQSHHKFNEHRTAKSLAERISGGERIALISDAGTPGISDPGFLLVRACAELGVVVECLPGPTALIPALVASGLPADRFVFEGFLPVKKGRQTRMKELAEELRTMIFYESPHRVLRTLTQFVETFGLDRPAAACRELSKLHEEVIRGTLAELLAHFENHPPRGEFVLIVGGAAPKGRKEEKQ | not soluble
11 | MEHEQHSSINDILHHYKEGIGSFTNQIPEIAETYNAFTQACFQEGALTKREKQLIALGISLATQDEYCTIYHTKGCLDQGCSDKEILEACGVSAAFAGGAAMSQAVTLVQECLTELKNQKH | not soluble
12 | MEHRDIVIVGGGMVGSALGAALSGKGLSVSVLEREAPAPFAPEQAPDLRVSAISPASAAFLQTIGAWGQALAMRAAPYRRMQVWERDEAAGTLFDAAEAGVPELGHIVENRVVQLAATEALLAKGDIDYRCPAVVSDIVYRPQASQLTLSDGSRLQARLLIAADGARSQVRDAAGIGVTGWDYPMHALVLSCRIDGGQQDITWQRFTPDGPQAFLPLSGDAASLVWYHRPEEVKRLLTLGDDELIAAVSQAFPRKLPGIRELAARGSFGLTRRHAQCYVKDGVALAGDAAHTIHPLAGQGVNLGFQDAAMLARTILDAHAKGEDWASGKTLVRYQRARKPANLAMQAGMDAFCYGFANDIGPLRLLRGLGLRLADKAGPLKREAIRYALGLRALEHHHHHH | not soluble
13 | MEIARKVMEEFLEIWNEALAKRSLPGKFVNKDLNFGEFGLGDNYTPQHTAVRNYALVMAHMIATVQAVSG | not soluble
14 | MEIHTYEKEFFDLLKRISHYSEAVALMHWDSRTGAPKNGSEDRAESIGQLSTDIFNIQTSDRMKELIDVLYERFDDLSEDTKKAVELAKKEYEENKKIPEAEYKEYVILCSKAETAWEEAKGKSDFSLFSPYLEQLIEFNKRFITYWGYQEHPYDALLDLFEPGVTVKVLDQLFAELKEAIIPLVKQVTASGNKPDTSFITKAFPKEKQKELSLYFLQELGYDFDGGRLDETVHPFATTLNRGDVRVTTRYDEKDFRTAIFGTIHECGHAIYEQNIDEALSGTNLSDGASMGIHESQSLFYENFIGRNKHFWTPYYKKIQEASPVQFKDISLDDFVRAINESKPSFIRVEADELTYPLHIIIRYEIEKAIFSNEVSVEDLPSLWNQKYQDYLGITPQTDAEGILQDVHWAGGDFGYFPSYALGYMYAAQLKQKMLEDLPEFDALLERGEFHPIKQWLTEKVHIHGKRKKPLDIIKDATGEELNVRYLIDYLSNKYSNLYLL | soluble
15 | MEIKEVLPCIADPKKLRVIGRVDGNFPAVMPYLARLIPNASYNEKRGWISFKKGQRIITIHEDGFVAMTQIKDEDEAKSILGEIEQKAQEAWEKRNKIDLSKPLEKTVVSPFDVYNYLPKTNCKRCGEQTCMAFAVKLLNGEVDIKACKPLFEDKKYEGLRETLIGMLVAAGYDLEL | soluble
16 | MEINTIIGNNLKKIRQEKKLTLDELAGITGVSKGMLSQIEKGTTNPTINTIWKISNGLNVPYTYLLEDDYVKENPVVKKTETVTQHSEDHSYRVFNYYSDNQERNFELFQFELDPGKKYQAVGHSKRSTEYVMVIQGALALEVGGQRYLLPKDAAMYFDANQVHTYINDGTEKVQAVVINYYT | not soluble
17 | MEINVDQINLMTKKGLRGDLKNFESVLDFLEKYGNATIVKYGMYSLVFQIAMNKFIDISKECEECGGKCCQIGYPVPVYGFDYEELRNKLSMEDLKKLEKVDSNLFLLRRPCKFQKGWYCSIHKFKPYACLSYPFATEDEQRDAINSYDGKGIPDLEHHHHHH | not soluble
18 | MEKFGKPLEENGKEATATVIGLGKLGSEELNYYSDVDLMFIHSTDKGKAGNLSLNDFFQRLFQKVVKLLNAQTPEGVPYFVDLDLRPFGKSGPLSMPLRSAELYYESYGRIWERFALLRARYCAGDEELAQKFMKEVVRPFVFGPADYKLVEEIRLMKKRIEAEAKKKFIKGYNVKTGEGGIREVEFSVQSLVILLGSKTPILRESNTYRAIYKLMQKGVFSSEEAQKLEESYTFLRKLEHRIQLRECLQTQVLKESDKETFAKFLGFESKEEFEEKLKETRAFVKSVFSQILPEREEEELDELQEAVIMEDEESGTQILKQKGFKSTRQIFTLLSEPLYGSMNVHFTEKEKKLYIKLIPKLVNLALSSQNPDQSIKNFFKFFFNPTGRRVILSEHKREEFLEKLFTVFSVSDYLSHLVARNPDLVEDALTLYRDFPKFEDFKREFEKYRETLNLSPENLYRRFKTVWEVRIGLVYLLKEEDRYEKLKKLYISLSTLADFILSNLWKDITLEENTALLYALGKLGSRELNFNSDLDLVFAVKSLEEKEKVHEKAKELVRFLTAHTTEGYLYSVDFRLRPMGSKGELVPTFDFYKKYFEKEARTWERLAWTRARYITGNEEFKEEFERLIENFLFEKPWGEKEKREVYEMRMKLQSVAKRGRGVVDLKLGEGGIVDGEFLVQYLLIKEKIRETSMIRGFEVLMEKYPRLKEAYDSFMFLRLVETHLRLSKERGTSVLSEQDIPKVALSLGMKPEELKESIKEKMKKMREVFNEFLAQ | not soluble
19 | MEKKKVVLAYSGGLDTSVAIKWLQEKNYDIIALCLDLGEGKDLAFVKEKALSVGAIKSYMIDVQEEFANEYALMAMQAHTLYEGKYPLVSALSRPLIAKKLVEIAEQEGATAVAHGCTGKGNDQVRFEVSIQALNPYLEVIAPVREWKWSREEEIAYAKENNVPIPINLDSPFSIDQNLWGRSNECGILEDPWAAPPEDAYEMTLALEDTPNKPEFVEIGFEAGVPTTLNGTAYPLSELIKTLNALAGKHGVGRIDHVENRLVGIKSREVYECPAAMTLITAHKELEDLTLVKEVAHFKPMIEQKITELIYNGLWFSPLKQALHAFLQETQKNVTGTVRVKLFKGHAIVEGRKSEYSLYDEKLATYTAQDEFNHDAAVGFISLFGLPTKVYSQVNQKKVEA | not soluble
20 | MEKKLVPQSISKERLQKLEAQATLTPQQEEAKARKIEREKARLKELNIPTESKESKDCSPAGMINPYALTEVILERPLDWSNPRTTDIVERVLGSSMQDLSKGDSVLRAGRDQNAEVKIVDSVLTKTQRGQDGLERILESFNDYDMPPEEKEEAAPKAKKAAQKLDIDDLREQALSSTTITKEISKIILPTKNLRDDNNTVHQYREVGFQSNGAHNLWDTVVQGIAGDC | not soluble
21 | MEKQYRVLLYYKYVPIEDPEAFREQHLAFCKELGLLGRILVSSEGINGTVSGTVEQTEKYMETMKADPRFADMVFKIDEAEGHAFKKIFVRHKKELVTLRLEDDVDPNETTGQHLKPAEFYEKMQDPNTIVIDARNDYEYDLGHFRGAVRPDIEAFRELPEWIEEHKDMLEGKKILTYCTGGVRCEKFSGWLVKQGFEDVAQLDGGIVTYGKDPEVQGKLWDGQCYVFDERISVPVNRVEHVIVGKDYFTGEPCERYVNCANPSCNKKMICTPENEYKYMRSCSHECRTNPRNLYVKEHNMTEEEVNARLAAIETEDHAAAELEHHHHHH | soluble
